In paper PMC5358978 (2017):

Target: human CRM1 (HsCRM1), wild type (human, UniProt O14980 1-1071)
Experiment: direct titration, PKI WT set

Sequence of human CRM1 (HsCRM1), wild type (O14980 whole entry): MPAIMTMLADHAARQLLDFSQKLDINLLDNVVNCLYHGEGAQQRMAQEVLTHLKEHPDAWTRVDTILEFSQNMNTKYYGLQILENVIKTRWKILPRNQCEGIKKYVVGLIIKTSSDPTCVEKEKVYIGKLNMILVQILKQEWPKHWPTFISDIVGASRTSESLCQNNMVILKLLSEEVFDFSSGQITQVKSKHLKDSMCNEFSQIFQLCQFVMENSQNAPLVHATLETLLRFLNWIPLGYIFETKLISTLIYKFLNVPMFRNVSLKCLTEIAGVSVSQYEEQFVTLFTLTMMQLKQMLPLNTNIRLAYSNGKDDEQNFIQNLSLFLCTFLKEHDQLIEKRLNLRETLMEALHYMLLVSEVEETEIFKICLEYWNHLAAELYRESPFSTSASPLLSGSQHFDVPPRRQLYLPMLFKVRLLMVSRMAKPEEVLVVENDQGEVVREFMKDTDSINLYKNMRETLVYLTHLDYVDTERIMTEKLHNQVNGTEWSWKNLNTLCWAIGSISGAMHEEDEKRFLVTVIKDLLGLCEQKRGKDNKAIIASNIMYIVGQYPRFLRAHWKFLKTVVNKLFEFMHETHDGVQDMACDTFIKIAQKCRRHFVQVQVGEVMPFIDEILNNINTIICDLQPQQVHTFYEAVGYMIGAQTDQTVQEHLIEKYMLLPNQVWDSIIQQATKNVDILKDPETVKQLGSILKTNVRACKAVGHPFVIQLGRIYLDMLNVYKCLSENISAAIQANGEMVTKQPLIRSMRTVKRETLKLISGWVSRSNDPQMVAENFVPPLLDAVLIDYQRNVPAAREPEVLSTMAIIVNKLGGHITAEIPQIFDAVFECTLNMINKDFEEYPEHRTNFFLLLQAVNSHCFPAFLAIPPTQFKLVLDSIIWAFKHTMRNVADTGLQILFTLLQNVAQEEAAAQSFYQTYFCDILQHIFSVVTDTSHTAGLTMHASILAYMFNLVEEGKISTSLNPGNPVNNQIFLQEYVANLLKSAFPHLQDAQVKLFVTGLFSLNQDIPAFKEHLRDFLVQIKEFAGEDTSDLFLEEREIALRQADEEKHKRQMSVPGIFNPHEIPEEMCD

B1: FITC-PKI NES (NES of Protein Kinase A Inhibitor, wild type) (peptide)
chain: NSNELALKLAGLDINKT
modifications: FITC label (FITC-PKI^NES)
Question: For B1, which Kd is on record?
Answer: Its Kd is 29 nM.
